Results reported in PMC9352680, “A comprehensive thermodynamic model for RNA binding by the Saccharomyces cerevisiae Pumilio protein PUF4”.
Numbering of substitutions follows the chain as printed. Names and notes keep the numbering of the source.

T1: PUF4 RNA-binding domain (Saccharomyces cerevisiae, UniProt P25339 537-888)
T1 sequence: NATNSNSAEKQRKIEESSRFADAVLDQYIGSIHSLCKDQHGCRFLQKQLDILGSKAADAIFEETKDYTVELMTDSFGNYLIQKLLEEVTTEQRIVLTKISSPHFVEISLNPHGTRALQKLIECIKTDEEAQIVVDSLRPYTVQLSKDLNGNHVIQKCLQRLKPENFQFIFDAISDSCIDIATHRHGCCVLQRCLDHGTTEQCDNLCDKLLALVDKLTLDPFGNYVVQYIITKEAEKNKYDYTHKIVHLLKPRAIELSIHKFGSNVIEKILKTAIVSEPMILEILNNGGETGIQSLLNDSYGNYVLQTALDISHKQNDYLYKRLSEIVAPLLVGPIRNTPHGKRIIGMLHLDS

B1: Ib_S2_P4E.1_K4.1_C4.1_H4.1_A4.1_F4.1_[T8G]_[A9G]_T4.1 (ssRNA)
RNA: UUUGAUUAAUAUGAUAUCGUUCUUUCUUGUAUAUGGUUCUUUCUCGAUAUCAUAUUAAUCUUU
B2: Ib_S2_P4E.1_K4.1_C4.1_H4.1_[A4T]_A4.1_F4.1_[T8A]_T4.1 (ssRNA)
RNA: B1 RNA with A31U, G35A, G36A
B3: Ic_S2_P4E.1_K4.1_C4.1_H4.1_A4.1_F4.1_[T8G]_[A9C]_T4.1 (ssRNA)
RNA: B1 RNA with G36C
B4: Ic_S2_P4E.1_K4.1_C4.1_H4.1_A4.1_F4.1_[T8G]_[A9T]_T4.1 (ssRNA)
RNA: B1 RNA with G36U
B5: Ib_S2_P4E.1_K4.1_C4.1_H4.1_[T1C]_A4.1_F4.1_[T8A]_T4.1 (ssRNA)
RNA: B1 RNA with U28C, G35A, G36A
B6: Ic_S2_P4E.1_K4.1_C4.1_H4.1_A4.1_F4.1_[T8C]_[A9C]_T4.1 (ssRNA)
RNA: B1 RNA with G35C, G36C
B7: Ib_S2_P4E.1_K4.1_C4.1_H4.1_[A4T]_A4.1_F4.1_[T8C]_T4.1 (ssRNA)
RNA: B1 RNA with A31U, G35C, G36A
B8: Ic_S2_P4E.1_K4.1_C4.1_H4.1_A4.1_F4.1_[T8C]_[A9G]_T4.1 (ssRNA)
RNA: B1 RNA with G35C
B9: Ib_S2_P4E.1_K4.1_C4.1_H4.1_[T1A]_A4.1_F4.1_[A9T]_T4.1 (ssRNA)
RNA: B1 RNA with U28A, G35U, G36U
B10: Ib_S2_P4E.1_K4.1_C4.1_H4.1_[A4G]_A4.1_F4.1_[T8C]_T4.1 (ssRNA)
RNA: B1 RNA with A31G, G35C, G36A
B11: Ib_S2_P4E.1_K4.1_C4.1_H4.1_[G2C]_A4.1_F4.1_[T8C]_T4.1 (ssRNA)
RNA: B1 RNA with G29C, G35C, G36A
B12: Ib_S2_P4E.1_K4.1_C4.1_H4.1_[T1C]_A4.1_F4.1_[A9C]_T4.1 (ssRNA)
RNA: B1 RNA with U28C, G35U, G36C
B13: Ib_S2_P4E.1_K4.1_C4.1_H4.1_A4.1_F4.1_[T8A]_[A9G]_T4.1 (ssRNA)
RNA: B1 RNA with G35A
B14: Ib_S2_P4E.1_K4.1_C4.1_H4.1_A4.1_F4.1_[T8A]_[A9C]_T4.1 (ssRNA)
RNA: B1 RNA with G35A, G36C
B15: Ib_S2_P4E.1_K4.1_C4.1_H4.1_[T1G]_A4.1_F4.1_[A9T]_T4.1 (ssRNA)
RNA: B1 RNA with U28G, G35U, G36U
B16: Ib_S2_P4E.1_K4.1_C4.1_H4.1_[A4G]_A4.1_F4.1_[T8A]_T4.1 (ssRNA)
RNA: B1 RNA with A31G, G35A, G36A
B17: Ia_S2_P4E.1_K4.1_C4.1_H4.1_A4.1_F4.1_[T8C]_T4.1 (ssRNA)
RNA: B1 RNA with G35C, G36A
B18: Ib_S2_P4E.1_K4.1_C4.1_H4.1_[A4C]_A4.1_F4.1_[T8C]_T4.1 (ssRNA)
RNA: B1 RNA with A31C, G35C, G36A
B19: Ib_S2_P4E.1_K4.1_C4.1_H4.1_[G2T]_A4.1_F4.1_[A9G]_T4.1 (ssRNA)
RNA: B1 RNA with G29U, G35U
B20: Ie_S4_P5E.1_K5.1_C5.1_H5.1_A5.1_F5.1_[+8C]_T5.1 (ssRNA)
RNA: UUUGACAACUGAUCGUUCUUUCUUGUAUUAUCUAUUCUUUCUCGAUCAGUUGUCUUU
B21: Ie_S4_P5E.1_K5.1_C5.1_H5.1_A5.1_[+7CTCTC]_F5.1_T5.1 (ssRNA)
RNA: UUUGACAACUGAUCGUUCUUUCUUGUAUUACUCUCUUAUUCUUUCUCGAUCAGUUGUCUUU
B22: Ie_S4_P5E.1_K5.1_C5.1_H5.1_A5.1_F5.1_[+9CCTCT]_T5.1 (ssRNA)
RNA: B21 RNA with C31U, U34C, C35U, U36C
B23: Ie_S4_P5E.1_K5.1_C5.1_H5.1_A5.1_F5.1_[+10TCTCT]_T5.1 (ssRNA)
RNA: B21 RNA with C31U, C33A, U37C, A38U
B24: Ie_S4_P5E.1_K5.1_C5.1_H5.1_A5.1_F5.1_[+9CTCTC]_T5.1 (ssRNA)
RNA: B21 RNA with C31U, U37C
B25: Ie_S4_P5E.1_K5.1_C5.1_H5.1_A5.1_F5.1_[+8CTCTC]_T5.1 (ssRNA)
RNA: B21 RNA with C31U, U32C, C33U, U34C, C35U, U36C
B26: Ia_S1_P3E.1_K3.1_C3.1_H3.1_[T1C]_A3.1_F3.1_T3.1 (ssRNA)
RNA: UCUCUUCGUAUAUAUCUCUU
B27: Ie_S4_P5E.1_K5.1_C5.1_H5.1_A5.1_[+7TCT]_F5.1_T5.1 (ssRNA)
RNA: UUUGACAACUGAUCGUUCUUUCUUGUAUUAUCUUUAUUCUUUCUCGAUCAGUUGUCUUU
B28: Ie_S4_P5E.1_K5.1_C5.1_H5.1_A5.1_[+7TTT]_F5.1_T5.1 (ssRNA)
RNA: B27 RNA with C32U
B29: Ie_S4_P5E.1_K5.1_C5.1_H5.1_A5.1_F5.1_[+10TCC]_T5.1 (ssRNA)
RNA: B27 RNA with C32U, U33A, U35C, A36C
B30: Ie_S4_P5E.1_K5.1_C5.1_H5.1_A5.1_F5.1_[+9CCC]_T5.1 (ssRNA)
RNA: B27 RNA with C32U, U33C, U34C, U35C
B31: Ie_S4_P5E.1_K5.1_C5.1_H5.1_A5.1_F5.1_[+9CCT]_T5.1 (ssRNA)
RNA: B27 RNA with C32U, U33C, U34C
B32: Ie_S4_P5E.1_K5.1_C5.1_H5.1_A5.1_F5.1_[+8TTC]_T5.1 (ssRNA)
RNA: B27 RNA with C32U, U34C
B33: Ie_S4_P5E.1_K5.1_C5.1_H5.1_A5.1_[+7CTT]_F5.1_T5.1 (ssRNA)
RNA: B27 RNA with U31C, C32U
B34: Ie_S4_P5E.1_K5.1_C5.1_H5.1_A5.1_F5.1_[+9CTC]_T5.1 (ssRNA)
RNA: B27 RNA with C32U, U33C, U35C
B35: Ie_S4_P5E.1_K5.1_C5.1_H5.1_A5.1_[+7CTCT]_F5.1_T5.1 (ssRNA)
RNA: UUUGACAACUGAUCGUUCUUUCUUGUAUUACUCUUUAUUCUUUCUCGAUCAGUUGUCUUU
B36: Ie_S4_P5E.1_K5.1_C5.1_H5.1_A5.1_F5.1_[+8TCTC]_T5.1 (ssRNA)
RNA: B35 RNA with C31U, U35C
B37: Ie_S4_P5E.1_K5.1_C5.1_H5.1_A5.1_F5.1_[+8TTCC]_T5.1 (ssRNA)
RNA: B35 RNA with C31U, C33U, U34C, U35C
B38: Ie_S4_P5E.1_K5.1_C5.1_H5.1_A5.1_F5.1_[+9TCTC]_T5.1 (ssRNA)
RNA: B35 RNA with C31U, C33U, U34C, U36C
B39: Ie_S4_P5E.1_K5.1_C5.1_H5.1_A5.1_F5.1_[+8CTCT]_T5.1 (ssRNA)
RNA: B35 RNA with C31U, U32C, C33U, U34C
B40: Ib_S2_P3E.1_K3.1_C3.1_H3.1_[A4C]_A3.1_[A6T]_F3.1_T3.1 (ssRNA)
RNA: UUUGAUUAAUAUGAUAUCGUUCUUUCUUGUCUUUAUUCUUUCUCGAUAUCAUAUUAAUCUUU
B41: Ic_S2_P3E.1_K3.1_C3.1_H3.1_A3.1_[A6T]_F3.1_T3.1 (ssRNA)
RNA: B40 RNA with C31A
B42: Ib_S2_P3E.1_K3.1_C3.1_H3.1_[A4T]_A3.1_[A6T]_F3.1_T3.1 (ssRNA)
RNA: B40 RNA with C31U
B43: Ic_S2_P3E.1_K3.1_C3.1_H3.1_A3.1_[T5C]_[A6G]_F3.1_T3.1 (ssRNA)
RNA: B40 RNA with C31A, U32C, U33G
B44: Ic_S2_P3E.1_K3.1_C3.1_H3.1_A3.1_[T5G]_[A6T]_F3.1_T3.1 (ssRNA)
RNA: B40 RNA with C31A, U32G
B45: Ib_S2_P3E.1_K3.1_C3.1_H3.1_A3.1_[T5C]_[A6T]_F3.1_T3.1 (ssRNA)
RNA: B40 RNA with C31A, U32C
B46: Ib_S2_P3E.1_K3.1_C3.1_H3.1_[A4T]_A3.1_[A6C]_F3.1_T3.1 (ssRNA)
RNA: B40 RNA with C31U, U33C
B47: Ic_S2_P3E.1_K3.1_C3.1_H3.1_A3.1_[T5C]_[A6C]_F3.1_T3.1 (ssRNA)
RNA: B40 RNA with C31A, U32C, U33C
B48: Ic_S2_P3E.1_K3.1_C3.1_H3.1_A3.1_[T5A]_[A6T]_F3.1_T3.1 (ssRNA)
RNA: B40 RNA with C31A, U32A
B49: Ic_S2_P3E.1_K3.1_C3.1_H3.1_A3.1_[A6C]_F3.1_T3.1 (ssRNA)
RNA: B40 RNA with C31A, U33C
B50: Ib_S2_P3E.1_K3.1_C3.1_H3.1_A3.1_[T5A]_[A6C]_F3.1_T3.1 (ssRNA)
RNA: B40 RNA with C31A, U32A, U33C
B51: Ie_S4_P5E.1_K5.1_C5.1_H5.1_A5.1_F5.1_[+8CC]_T5.1 (ssRNA)
RNA: UUUGACAACUGAUCGUUCUUUCUUGUAUUAUCCUAUUCUUUCUCGAUCAGUUGUCUUU
B52: Ie_S4_P5E.1_K5.1_C5.1_H5.1_A5.1_F5.1_[+10TT]_T5.1 (ssRNA)
RNA: B51 RNA with C32U, C33A, A35U
B53: Ie_S4_P5E.1_K5.1_C5.1_H5.1_A5.1_F5.1_[+8CT]_T5.1 (ssRNA)
RNA: B51 RNA with C33U

Molecular target: T1, PUF4 RNA-binding domain
Test: Mg; RNA-MaP; 20 mM Na-HEPES pH 7.4, 30 mM KOAc, 0.75 mM MgCl2, 0.1% Tween-20, 5% glycerol, 0.1 mg/mL BSA, 2 mM DTT; 25 C; 0.0125-409.6 nM protein
Conditions: tags: N-His6-TEV cleaved; C-SNAP kept, Cy3B-labelled; label: tethered on chip by stalled RNA polymerase

Row | Binder | Kd [µM]
1 | B1 | 0.0586
2 | B2 | 0.122
3 | B3 | 0.0154
4 | B4 | 0.00599
5 | B5 | 0.451
6 | B6 | 0.00844
7 | B7 | 1.25
8 | B8 | 0.00789
9 | B9 | 1.38
10 | B10 | 0.0163
11 | B11 | 0.848
12 | B12 | 0.607
13 | B13 | 0.00903
14 | B14 | 0.00686
15 | B15 | 1.38
16 | B16 | 0.00378
17 | B17 | 0.00794
18 | B18 | > 2.3
19 | B19 | > 2.3
20 | B20 | 0.0171
21 | B21 | 0.0287
22 | B22 | 0.0178
23 | B23 | 0.00365
24 | B24 | 0.025
25 | B25 | 0.0275
26 | B26 | 1.18
27 | B27 | 0.0249

Row | Binder | Kd [µM]
28 | B28 | 0.0125
29 | B29 | 0.00562
30 | B30 | 0.0108
31 | B31 | 0.0176
32 | B32 | 0.0123
33 | B33 | 0.0268
34 | B34 | 0.0298
35 | B35 | 0.0651
36 | B36 | 0.0201
37 | B37 | 0.0211
38 | B38 | 0.018
39 | B39 | 0.0278
40 | B40 | 1.21
41 | B41 | 0.0114
42 | B42 | 0.576
43 | B43 | 0.0331
44 | B44 | 0.181
45 | B45 | 0.0148
46 | B46 | 0.472
47 | B47 | 0.0106
48 | B48 | 0.0722
49 | B49 | 0.00848
50 | B50 | 0.066
51 | B51 | 0.021
52 | B52 | 0.00252
53 | B53 | 0.0161
